Laboratory results from paper PMC11147780, “Vaccination induces broadly neutralizing antibody precursors to HIV gp41” (Nature Immunology, 2024).
Changes are numbered by the printed parent chain. Like-named read-outs stand apart in the source and are kept apart here.

What was measured:
T117v2 epitope scaffold = biological target: T1, T117v2 epitope scaffold (designed scaffold T117v2 with HIV-1 …); assay: SPR; values told in the text, methods or extended data without a main figure; instrument not told (Carterra LSA, ProteOn XPR36 with GLC chip or Biacore 4000 with CM5 chip); conditions: both partners purified
T1 chain: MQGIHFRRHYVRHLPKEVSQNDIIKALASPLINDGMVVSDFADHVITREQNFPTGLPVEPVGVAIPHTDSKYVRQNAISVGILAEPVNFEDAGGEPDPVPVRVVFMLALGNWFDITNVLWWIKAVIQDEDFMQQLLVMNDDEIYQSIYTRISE

10E8-B1 epitope scaffold [1] = biological target: T2, 10E8-B1 epitope scaffold (synthetic construct (resurfaced …)); assay: SPR; Carterra LSA, HC30M or CMDP chips; antibodies as ligands held by an amine-coupled capture antibody, scaffolds as analytes (monovalent Kd); 1x HBS-EP+ pH 7.4 with 1 mg/ml bovine serum albumin; Langmuir model; values of the main text figures; conditions: both partners purified
T2 chain: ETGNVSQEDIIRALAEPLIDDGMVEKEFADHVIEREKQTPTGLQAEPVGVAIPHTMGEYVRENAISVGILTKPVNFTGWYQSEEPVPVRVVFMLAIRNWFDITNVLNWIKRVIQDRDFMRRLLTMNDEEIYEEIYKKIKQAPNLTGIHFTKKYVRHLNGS

T117v2 = biological target: T3, T117v2 (designed scaffold T117v2 with HIV-1 …); assay: SPR; ProteOn XPR36, GLC sensor chip; antibody as ligand, monomeric scaffold as analyte; monovalent KD; conditions: both partners purified
T3 construct: also called T117v2 scaffold; source: FreeStyle 293F, purified (IMAC, SEC)
T3 chain: T1 chain

10E8-GT4 = biological target: T4, 10E8-GT4 (synthetic construct (T117-based HIV-1 …)); assay: as above; conditions: both partners purified
T4 construct: source: FreeStyle 293F, purified (IMAC, SEC)
T4 chain: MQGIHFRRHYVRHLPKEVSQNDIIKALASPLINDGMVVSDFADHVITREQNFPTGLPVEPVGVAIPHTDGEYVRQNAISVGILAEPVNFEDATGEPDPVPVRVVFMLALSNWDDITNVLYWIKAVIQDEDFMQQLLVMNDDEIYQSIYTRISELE

[2] = biological target: T5, 10E8-GT10.2 epitope scaffold (designed scaffold 10E8-GT10.2 with …, N-linked glycosylation sites added (positions not given))
T5 chain: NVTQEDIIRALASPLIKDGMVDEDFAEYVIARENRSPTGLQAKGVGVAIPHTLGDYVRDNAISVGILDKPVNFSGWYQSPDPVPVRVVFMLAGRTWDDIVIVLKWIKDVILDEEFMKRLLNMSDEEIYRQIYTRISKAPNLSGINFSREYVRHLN

10E8-B1 epitope scaffold [3] = biological target: T2, 10E8-B1 epitope scaffold
[4] = biological target: T6, 10E8-GT10.1 epitope scaffold (synthetic construct, circularly …, N-linked glycosylation sites added (positions not given)); assay: SPR; Carterra LSA, HC30M or CMDP chips; antibodies as ligands held by an amine-coupled capture antibody, scaffolds as analytes (monovalent Kd); 1x HBS-EP+ pH 7.4 with 1 mg/ml bovine serum albumin; Langmuir model; values of the main text figures; conditions: both partners purified
T6 chain: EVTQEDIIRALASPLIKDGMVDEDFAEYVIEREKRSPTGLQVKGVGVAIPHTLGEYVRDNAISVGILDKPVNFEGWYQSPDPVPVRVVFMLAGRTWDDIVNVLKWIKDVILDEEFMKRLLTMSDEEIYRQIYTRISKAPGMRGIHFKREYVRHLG

[5] = biological target: T7, 10E8-GT12 epitope scaffold (synthetic construct (HIV-1 MPER graft …, N-linked glycosylation sites added (positions not given)))
T7 chain: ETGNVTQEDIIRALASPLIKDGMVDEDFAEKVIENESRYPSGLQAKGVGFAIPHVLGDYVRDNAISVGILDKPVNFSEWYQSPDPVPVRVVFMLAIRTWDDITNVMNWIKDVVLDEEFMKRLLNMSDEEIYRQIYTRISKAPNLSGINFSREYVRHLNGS

[6] = biological target: T5, 10E8-GT10.2 epitope scaffold; assay: SPR; values told in the text, methods or extended data without a main figure; instrument not told (Carterra LSA, ProteOn XPR36 with GLC chip or Biacore 4000 with CM5 chip); conditions: both partners purified

B1: mature 10E8 broadly neutralizing antibody (antibody, V domains shown)
VH: EVQLVESGGGLVKPGGSLRLSCSASGFDFDNAWMTWVRQPPGKGLEWVGRITGPGEGWSVDYAAPVEGRFTISRLNSINFLYLEMNNLRMEDSGLYFCARTGKYYDFWSGYPPGEEYFQDWGRGTLVTVSS
VL: SYELTQETGVSVALGRTVTITCRGDSLRSHYASWYQKKPGQAPILLFYGKNNRPSGVPDRFSGSASGNRASLTISGAQAEDDAEYYCSSRDKSGSRLSVFGGGTKLTVL
notes: also called 10E8 bnAb; source: FreeStyle 293F cells or ExpiCHO (high-throughput), purified (protein A)
- Kd (T117v2 epitope scaffold): 0.39 nM
- Kd (10E8-B1 epitope scaffold [1]): 0.08 nM

B2: 10E8 (antibody, V domains shown)
VH: B1 VH
VL: B1 VL
notes: also called mature 10E8; 10E8 bnAb; source: FreeStyle 293F or ExpiCHO, purified (protein A)
- Kd (T117v2): 0.94 nM
- Kd (10E8-GT4): 9.5 nM

B3: NHP-10E8_MPER-GT10v55_W26-03 (antibody, V domains shown)
VH: QVQLQESGPGVVKPSETLSLTCAVSGGSISDNYWWTWIRQPPGKGLEWIGYIYGSNTSTNYNPSLKSRVTISKDTSKNQFSLKLSSVTAADTAVYYCARDREFYNFWSGYYGAYGLDSWGQGVVVTVSS
VL: QPVLTQPTSLSASPGASARLSCTLSSGINVGSYSIYWYQQKPGSPPRYLLYYDSDSNKHQGSGVPSRFSGSNDASANAGLLLISGLQSEDEADYYCAIWHSSTYYIFGGGTRLTV
- Kd [2]: 0.178 nM
- Kd (10E8-B1 epitope scaffold [3]): 840 nM

B4: 10E8 unmutated common ancestor antibody (antibody, V domains shown)
VH: not shown
VL: SSELTQDPAVSVALGQTVRITCQGDSLRSYYASWYQQKPGQAPVLVIYGKNNRPSGIPDRFSGSSSGNTASLTITGAQAEDEADYYCNSRDSSGNHLVVFGGGTKLTVL
notes: also called 10E8 UCA; proposed 10E8 UCA; source: FreeStyle 293F cells or ExpiCHO (high-throughput), purified (protein A)
- Kd [4]: ~600 nM

B5: 10E8-iGL2 (antibody, V domains shown)
VH: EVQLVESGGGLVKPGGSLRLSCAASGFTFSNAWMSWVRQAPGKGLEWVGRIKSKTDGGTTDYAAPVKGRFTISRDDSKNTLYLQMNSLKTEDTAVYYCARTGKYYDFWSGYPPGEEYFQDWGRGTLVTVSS
VL: B4 VL with V98W
notes: source: FreeStyle 293F or ExpiCHO, purified (protein A)
- Kd (T117v2): 17000 nM
- koff (T117v2): 0.11 s⁻¹
- kon (T117v2): 6600 M⁻¹ s⁻¹

B6: 10E8-iGL1 (antibody, V domains shown)
VH: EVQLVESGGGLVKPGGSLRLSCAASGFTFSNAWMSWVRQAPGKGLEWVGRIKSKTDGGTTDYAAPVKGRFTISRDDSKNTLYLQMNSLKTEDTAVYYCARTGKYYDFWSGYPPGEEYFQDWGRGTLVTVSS
VL: B4 VL with N88S, S92K, N95S, H96R, V98S
notes: as for B5
- Kd (10E8-GT4): 250 nM
- koff (10E8-GT4): 25 s⁻¹
- kon (10E8-GT4): 1e+08 M⁻¹ s⁻¹

B7: NHP-10E8_MPER-GT10v55_W26-06 (antibody, V domains shown)
VH: QVQLQESGPGLVKPSETLSLTCAVSGDSISSGYYYWSWIRQPPGKGLEWIGYITYSGSTSYNPSLKSQVTISRDTAKNQFSLKLSSVTAADTAVYYCARGGTYYNFWSDGSPQYNRFGFWGPGVPVTVSS
VL: DIVMTQTPLSLPVTPGEPASISCRSSQSLLHSEDGNTYLDWYLQKPGQSPQLLIYEVSNRASGVPDRFSGSGSDTDFTLKISRVEAEDVGVYYCMQGLEFPLTFGGGTKVELK
- Kd [2]: 1.45 nM
- Kd (10E8-B1 epitope scaffold [3]): 6420 nM

B8: NHP-10E8_MPER-GT10v55_W21-19 (antibody, V domains shown)
VH: QVQLQESGPGLLKPSDTLSLICAVSGGSISGGYGWGWIRQPPGKGLEWIGSIYSSNGNTYYNPSLKSRVTISTDTSKNQFSLKLNSVTAADTAVYYCGSGGLSYSFWSGYQSLHRLHVWGPGVLVTVSS
VL: B7 VL with H31D, N59K, L102F, G106P, V110L, E111D, L112I
- Kd [2]: 0.579 nM
- Kd (10E8-B1 epitope scaffold [3]): 415 nM

B9: NHP-10E8_MPER-GT10v55_W21-12 (antibody, V domains shown)
VH: EVQLVESGGGLVQPGGSLRLSCAASGFTFSSYGMHWVRQAPGKGLEWVAVIWYDGSKKYYADSVKDRFTISRDNSKNMLYLQMNNLKFEDTAVYYCARVAPDYDFWSGSYTYSGLDSWGQGVVVTVSS
VL: DIQMTQSPSSLSASVGDTVTITCRASQSISSWLDWYQQKPGKAPKLLIYKASNLQSGVPSRFSGSGSGTHFTLTISSLQPEDFATYYCLQYNSSPYSFGQGTKVEIK
- Kd [2]: 0.842 nM
- Kd (10E8-B1 epitope scaffold [3]): 1010 nM

B10: MPER_HuGL-106 (MPER-102) (antibody, V domains shown)
VH: EVQLVESGGGLVQPGRSLRLSCTASGFTFGDYAMSWVRQAPGKGLEWVGFIRSKAYGGTTEYAASVKGRFTISRDDSKSIAYLQMNSLKTEDTAVYYCTRDKVGYDFWSGDYYYYGMDVWGQGTTVTVSS
VL: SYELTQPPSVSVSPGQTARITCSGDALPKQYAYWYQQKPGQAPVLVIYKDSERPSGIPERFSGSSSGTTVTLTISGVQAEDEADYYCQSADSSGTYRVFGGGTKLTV
- Kd [5]: 1140 nM

B11: NHP-10E8_MPER-GT10v55_W26-05 (antibody, V domains shown)
VH: EVQLVESGGGLVQPGGSLRLSCAASGFTFSNYWMNWVRQAPGKGLEWVGFIKNKADGGTAAYAESVKGRFTISRDDSKNTLYLQMNSLKTEDTAVYYCTREATFYNFWSGYYTPQYGLDSWGQGVVVTVSS
VL: QPVLTQPTSLSASPGASARLTCTLSSGISVGSYRIFWYQQKPGSPPRYLLNYHTDSDKHQGSGVPSRFSGSKDASANAGILLISGLQSEDEADYYCMIWHNNAHGLFGGGTRLTV
- Kd [2]: 263 nM
- Kd (10E8-B1 epitope scaffold [3]): 9680 nM

B12: NHP W3-01 Fab (Fab, V domains shown)
VH: QVQLQESGPGLVKPSETLSLTCAVSGGSFSSDWWGWIRQPPGKGLEWIGTIYGSGGSNYLNPSLKSRVTLSVDTSKNQFSLRLSSVTAADTAVYYCARGSGRYNIWTGYYTPFDAFDFWGRGLRVTVSS
VL: SYELTQPPSMSVSPGQTARITCGGDNLGSKYVHWYQQKPAQAPVLVIYYDSDRPSGIPERFSGSKSGNTATLTISGVEAGDEADYYCQVWDSSSDHYIFGAGTRLTVL
notes: also called 10E8-GT10.2-induced macaque antibody with a YxIW motif from week 3
- Kd [6]: 4.8 nM
